Reference: article PMC8811898, “Structural Insights into Methylated DNA Recognition by the Methyl-CpG Binding Domain of MBD6 from Arabidopsis thaliana”

Legend:
[1] = target: T1, AtMBD6 MBD domain WT (Arabidopsis thaliana, UniProt Q9LTJ1 78-140); assay: NMR titration (1H-15N HSQC); 20 mM Na phosphate pH 6.5, 150 mM NaCl, 20 C; two-state fit; NMR: 20 mM Na phosphate pH 6.5, 150 mM NaCl, 5% D2O, 20 C; EMSA: 25 mM Tris, 25 mM boric acid, 150 mM NaCl, 5% glycerol, 1 mM DTT, 4 C, 30 min; conditions: protein: recombinant; tags: GST removed by HRV3C; N-terminal GPLGS remains; blunt; self-complementary
T1 sequence: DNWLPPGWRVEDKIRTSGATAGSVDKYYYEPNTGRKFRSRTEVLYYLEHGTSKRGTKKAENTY

[2] = target: T2, AtMBD6 MBD domain S100R (Arabidopsis thaliana, UniProt Q9LTJ1 78-140, S100R); assay: NMR titration (1H-15N HSQC); slow exchange, increased affinity vs WT; no reliable Kd from NMR, ITC or FP; NMR: 20 mM Na phosphate pH 6.5, 150 mM NaCl, 5% D2O, 20 C; EMSA: 25 mM Tris, 25 mM boric acid, 150 mM NaCl, 5% glycerol, 1 mM DTT, 4 C, 30 min; conditions: protein: recombinant; tags: GST removed by HRV3C; N-terminal GPLGS remains; blunt; self-complementary
T2 sequence: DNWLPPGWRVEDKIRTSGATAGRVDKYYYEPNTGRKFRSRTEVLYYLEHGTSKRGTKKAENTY

B1: MG (dsDNA)
DNA 1: GGTATGCGCATACC
DNA 2: GGTATGCGCATACC
modifications: 5-methylcytosine at position 7 of both strands (symmetric methyl-CpG)
**Q.** B1 was tested. Which Kd [1] did it give?
**A.** 40.2 ± 0.5 µM

**Q.** Does B1 bind [2]?
**A.** binds
